Patent US20240343803A1 (SHANDONG SIMCERE BIOPHARMACEUTICAL, published 2024)

Key:
[1] = target: T1, human PVRIG on FlpinCHO-PVRIG cells (human, UniProt Q6DKI7 41-326); test: FACS, FlpinCHO-PVRIG cells; AUC of MFI curve relative to SRF813-hIgG1
T1 construct: whole, on cells
T1 sequence (looked up): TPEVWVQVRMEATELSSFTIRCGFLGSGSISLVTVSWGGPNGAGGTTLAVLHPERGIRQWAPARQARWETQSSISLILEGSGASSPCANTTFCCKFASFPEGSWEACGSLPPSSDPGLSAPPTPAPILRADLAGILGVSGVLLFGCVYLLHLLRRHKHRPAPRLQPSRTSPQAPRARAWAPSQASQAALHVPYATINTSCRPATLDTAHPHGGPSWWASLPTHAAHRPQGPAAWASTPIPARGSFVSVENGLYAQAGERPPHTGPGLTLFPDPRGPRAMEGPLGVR
Experimental: (§1) The Ham's F12 (Gibico, 21127-022) complete medium containing 10% FBS was then added to terminate the digestion and acquire cell suspension. After counting with a cell counter (Beckman Coulter, Vi-CELL), an appropriate amount of cell suspension was centrifuged at 350×g to remove the supernatant, washed twice with PBS, stained with Zombie violet (Biolegend, 423114) and incubated at room temperature for 20 minutes. After incubation, the cells were added with staining buffer (2% FBS+PBS) to stop staining, centrifuged at 350×g to remove the supernatant, washed twice and resuspended with staining buffer to a density of 2×10⁶ cells/mL. The cells were plated into a 96-well plate (50 μL of cell suspension per well) for further use. The antibodies were diluted from the highest concentration of 46 nM (two-fold concentration) with staining buffer by 3.3-fold serial dilution. The diluted antibodies were added to the well containing 50 μL of cell suspension. The plate was placed on a microplate shaker at 400 rpm for 1 minute to fully mix the antibodies and cells, and then incubated at 4° C. for 30 minutes. After the incubation, the cells were washed twice with staining buffer (200 μL per well) and centrifuged at 350×g for 5 minutes to discard the supernatant. The PE goat anti-human IgG Fc antibody (ebioscience, 12-4998-82) was diluted 250 times with staining buffer, added into the washed wells (100 μL per well), mixed well, and stained at 4° C. for 30 minutes. After staining, the cells were washed twice with staining buffer, finally resuspended with 200 μL staining buffer and analyzed by flow cytometry (BD, Canto II). The stronger the signal, the stronger the ability of the antibodies binds to PVRIG. An antibody binding curve was drawn with concentration of antibodies as the abscissa and the corresponding Mean Fluorescence Intensity (MFI) as the ordinate. The AUC value of the curve was calculated by using a Four Parameter Logistic Fit (GraphPadPrism9). The stronger the AUC value, the stronger the ability of the antibodies binds to FlpinCHO-PVRIG and FlpinCHO-cyno PVRIG. […] The binding activity of the antibodies was normalized to the positive control COM701-hIgG1 and SRF813-hIgG1.

[2] = target: T1, human PVRIG on FlpinCHO-PVRIG cells; test: FACS, FlpinCHO-PVRIG cells; AUC of MFI curve relative to COM701-hIgG1
Experimental: as §1

[3] = target: T2, cynomolgus monkey PVRIG on FlpinCHO-cyno PVRIG cells (cynomolgus monkey, UniProt A0A2K5WVV8 41-322); test: FACS, FlpinCHO-cyno PVRIG cells; AUC of MFI curve relative to COM701-hIgG1
T2 construct: whole, on cells
T2 sequence: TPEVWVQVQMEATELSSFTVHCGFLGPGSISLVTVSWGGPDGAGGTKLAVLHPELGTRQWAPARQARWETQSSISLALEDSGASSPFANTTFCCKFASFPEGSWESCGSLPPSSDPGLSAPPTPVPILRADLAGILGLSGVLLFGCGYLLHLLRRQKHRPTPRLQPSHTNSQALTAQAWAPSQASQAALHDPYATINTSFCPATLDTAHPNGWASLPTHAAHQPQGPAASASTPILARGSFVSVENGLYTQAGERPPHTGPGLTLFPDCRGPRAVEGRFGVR
Experimental: as §1

[4] = target: T3, cynomolgus monkey PVRIG (Novoprotein, Cat NO. C09B) (cynomolgus monkey, UniProt A0A2K5WVV8 41-171); test: ELISA, coated cynomolgus monkey PVRIG
T3 construct: Bought reagent; also called cynomolgus monkey PVRIG protein
T3 sequence: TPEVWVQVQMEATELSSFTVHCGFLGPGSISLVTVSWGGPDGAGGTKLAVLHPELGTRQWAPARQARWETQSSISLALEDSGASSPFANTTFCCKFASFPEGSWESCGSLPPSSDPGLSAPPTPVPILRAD

[5] = target: T2, cynomolgus monkey PVRIG on …; test: FACS, FlpinCHO-cyno PVRIG cells; AUC of MFI curve relative to SRF813-hIgG1
Experimental: as §1

[6] = target: T4, human PVRIG-his (AcroBiosystems, Cat NO. PVG-H52H4) (human, UniProt Q6DKI7 41-171, limits assumed); test: ELISA, coated human PVRIG-his; binding ELISA, Table 23
T4 construct: Bought reagent; also called human PVRIG protein
T4 sequence (looked up): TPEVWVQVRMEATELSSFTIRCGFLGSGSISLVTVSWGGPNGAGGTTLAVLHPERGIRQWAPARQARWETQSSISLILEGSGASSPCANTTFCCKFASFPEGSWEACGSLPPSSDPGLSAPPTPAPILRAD
Experimental: The ELISA plate was pre-coated with 100 μL/well of 0.5 μg/mL human PVRIG-his (AcroBiosystems, Cat NO. PVG-H52H4) or cynomolgus monkey PVRIG (Novoprotein, Cat NO. C09B). […] A HRP substrate, TMB (Thermo, Cat NO. 34029) was added into wells after washing the plate again for color development. After adding a termination solution to terminate the reaction, the absorbance value was read by a microplate reader (MD i3×). An antibody binding curve was drawn with concentration of antibodies as the abscissa and the corresponding OD value as the ordinate. The EC50 value was calculated by using a Four Parameter Logistic Fit (GraphPadPrism9). The smaller the EC50 value, the stronger the ability of the antibodies binds to human or cynomolgus monkey PVRIG. The positive control antibodies are COM701-hIgG1 (Patent No.:US20180244774A1), COM701-hIgG4 (patent No.: US20180244774A1) and SRF813-hIgG1 (Patent No.:US20200040081A1); and the negative control antibodies are anti-HA HcAb-hIgG1 (Chengdu NB Biolab, Cat NO. NBR022), anti-CD38 HcAb-hIgG1 (in-house) and anti-Fluorescein-hIgG1 (in house).

B1: PVRIG-A11 (Fc fusion)
chain: QLQLVESGGGLVQPGGSLRLSCAASGFTDDYYAIGWFRQAPGKEREGVSCISGSGGSTNYEDSVKGRFAISRDNAKNMVYLQMNDLKPEDTAVYYCAADPFWSAPCTGHNDRYFDVWGQGTLVTVSS
notes: Alpaca VHH joined to human IgG1 Fc (VHH-hinge-CH2-CH3); not shown: human IgG1 hinge-CH2-CH3
[1]
  % AUC to SRF813-hIgG1: 143%
[2]
  % AUC to COM701-hIgG1: 117%
[3]
  % AUC to COM701-hIgG1: 41.3%
[4]
  EC50: 0.0289 nM
[5]
  % AUC to SRF813-hIgG1: 48.6%
[6]
  EC50: 0.121 nM
